The assay has as its target GP1 receptor-binding domain of Lujo virus (LUJVGP1), residues 74-199 (Lujo virus (LUJV), UniProt C5ILC1 74-199). The assay is described as follows: crystal structure.

Consider one molecule from doi:10.1101/329482 (bioRxiv, 2018).

B1: first CUB domain of neuropilin-2 (NRP2), binding site fragment (domain or fragment)
chain: PCGGRLNSKDAGYITSPGYPQDYPSHQNCEWIVYAPEPNQKIVLNFNPHFEIEKHDCKYDFIEIRDGDSESADLLGKHCGNIAPPTIISSGSMLYIKFTSDYARQGAGFSLRYEIFKTGS
For B1, the binding result is reported as “binds”.
